Test results as given in the Human Domainome abundance scans (Beltran et al. 2025).
± gives the uncertainty stated by the source.

Assay: abundance fitness (aPCA) (normalised: wild type 0, dead -1); higher = more abundant; growth selection in yeast, the domain comes from the species named
Details: Homo sapiens
For “NEDD4-like E3 ubiquitin-protein ligase WWP2 V463A, O00308”, the abundance fitness was -0.136 ± 0.036.
In the case of “NEDD4-like E3 ubiquitin-protein ligase WWP2 P477F, O00308”, the abundance fitness is reported as -0.091 ± 0.073.
For “NEDD4-like E3 ubiquitin-protein ligase WWP2 G482Q, O00308”, the abundance fitness was -0.009 ± 0.057.
“Transcription factor SOX-11 D115N, P35716” gave an abundance fitness of -0.193 ± 0.16.
Substance “NEDD4-like E3 ubiquitin-protein ligase WWP2 T483K, O00308” has an abundance fitness of 0.084 ± 0.071.
“NEDD4-like E3 ubiquitin-protein ligase WWP2 E457A, O00308” showed an abundance fitness of -0.081 ± 0.044.
For “NEDD4-like E3 ubiquitin-protein ligase WWP2 E480F, O00308”, the abundance fitness was -0.239 ± 0.062.
In the case of “NEDD4-like E3 ubiquitin-protein ligase WWP2 T455N, O00308”, the abundance fitness is reported as -0.147 ± 0.073.
Work on “NEDD4-like E3 ubiquitin-protein ligase WWP2 H465D, O00308” yielded an abundance fitness of -0.461 ± 0.06.
For “NEDD4-like E3 ubiquitin-protein ligase WWP2 Q442D, O00308”, the abundance fitness was 0.079 ± 0.066.
For “NEDD4-like E3 ubiquitin-protein ligase WWP2 E443K, O00308”, the abundance fitness was -0.062 ± 0.073.
Substance “NEDD4-like E3 ubiquitin-protein ligase WWP2 M440W, O00308” has an abundance fitness of -0.831 ± 0.3.
In the case of “NEDD4-like E3 ubiquitin-protein ligase WWP2 G478V, O00308”, the abundance fitness is reported as -0.058 ± 0.047.
With “NEDD4-like E3 ubiquitin-protein ligase WWP2 G486A, O00308” the abundance fitness was 0.028 ± 0.038.
Substance “NEDD4-like E3 ubiquitin-protein ligase WWP2 D474E, O00308” has an abundance fitness of -0.192 ± 0.074.
“NEDD4-like E3 ubiquitin-protein ligase WWP2 T467R, O00308” showed an abundance fitness of -0.405 ± 0.18.
For “NEDD4-like E3 ubiquitin-protein ligase WWP2 G478E, O00308”, the abundance fitness was -0.036 ± 0.063.
“NEDD4-like E3 ubiquitin-protein ligase WWP2 N466D, O00308” showed an abundance fitness of -0.377 ± 0.064.
Substance “NEDD4-like E3 ubiquitin-protein ligase WWP2 F472V, O00308” has an abundance fitness of -0.392 ± 0.044.
“NEDD4-like E3 ubiquitin-protein ligase WWP2 G458H, O00308” showed an abundance fitness of -0.234 ± 0.068.
“NEDD4-like E3 ubiquitin-protein ligase WWP2 D492C, O00308” gave an abundance fitness of -0.146 ± 0.061.
For “Heterogeneous nuclear ribonucleoprotein U-like protein 2 S22D, Q1KMD3”, the abundance fitness was 0.187 ± 0.09.
For “NEDD4-like E3 ubiquitin-protein ligase WWP2 T455F, O00308”, the abundance fitness was -0.912 ± 0.14.
“NEDD4-like E3 ubiquitin-protein ligase WWP2 T470I, O00308” gave an abundance fitness of -0.734 ± 0.15.
For “NEDD4-like E3 ubiquitin-protein ligase WWP2 P477G, O00308”, the abundance fitness was -0.019 ± 0.031.
“NEDD4-like E3 ubiquitin-protein ligase WWP2 T471D, O00308” gave an abundance fitness of -0.647 ± 0.057.
“NEDD4-like E3 ubiquitin-protein ligase WWP2 Y491W, O00308” showed an abundance fitness of -0.104 ± 0.054.
“NEDD4-like E3 ubiquitin-protein ligase WWP2 P477K, O00308” showed an abundance fitness of -0.037 ± 0.052.
“NEDD4-like E3 ubiquitin-protein ligase WWP2 T483I, O00308” gave an abundance fitness of -0.056 ± 0.038.
Substance “NEDD4-like E3 ubiquitin-protein ligase WWP2 T483A, O00308” has an abundance fitness of -0.041 ± 0.034.
For “NEDD4-like E3 ubiquitin-protein ligase WWP2 L446K, O00308”, the abundance fitness was -0.688 ± 0.094.
“NEDD4-like E3 ubiquitin-protein ligase WWP2 R468M, O00308” showed an abundance fitness of -0.11 ± 0.033.
Substance “NEDD4-like E3 ubiquitin-protein ligase WWP2 F472Q, O00308” has an abundance fitness of -0.402 ± 0.045.
For “NEDD4-like E3 ubiquitin-protein ligase WWP2 G482E, O00308”, the abundance fitness was -0.064 ± 0.049.
For “NEDD4-like E3 ubiquitin-protein ligase WWP2 D464R, O00308”, the abundance fitness was -0.94 ± 0.041.
With “NEDD4-like E3 ubiquitin-protein ligase WWP2 T470E, O00308” the abundance fitness was -0.218 ± 0.068.
In the case of “NEDD4-like E3 ubiquitin-protein ligase WWP2 N466P, O00308”, the abundance fitness is reported as -0.636 ± 0.075.
Work on “NEDD4-like E3 ubiquitin-protein ligase WWP2 G449A, O00308” yielded an abundance fitness of -0.269 ± 0.049.
For “NEDD4-like E3 ubiquitin-protein ligase WWP2 A490Q, O00308”, the abundance fitness was 0.029 ± 0.069.
For “Transcription factor SOX-11 I67L, P35716”, the abundance fitness was -0.178 ± 0.066.
For “Transcription factor SOX-11 I96Q, P35716”, the abundance fitness was 0.03 ± 0.08.
With “NEDD4-like E3 ubiquitin-protein ligase WWP2 E457D, O00308” the abundance fitness was -0.068 ± 0.062.
Substance “NEDD4-like E3 ubiquitin-protein ligase WWP2 K484D, O00308” has an abundance fitness of -0.028 ± 0.073.
Substance “NEDD4-like E3 ubiquitin-protein ligase WWP2 R460T, O00308” has an abundance fitness of -0.032 ± 0.061.
With “NEDD4-like E3 ubiquitin-protein ligase WWP2 F472H, O00308” the abundance fitness was -0.291 ± 0.033.
Work on “NEDD4-like E3 ubiquitin-protein ligase WWP2 V459R, O00308” yielded an abundance fitness of -0.127 ± 0.051.
“NEDD4-like E3 ubiquitin-protein ligase WWP2 G458T, O00308” showed an abundance fitness of -0.505 ± 0.058.
“NEDD4-like E3 ubiquitin-protein ligase WWP2 P448K, O00308” gave an abundance fitness of 0.108 ± 0.067.
“NEDD4-like E3 ubiquitin-protein ligase WWP2 T455I, O00308” showed an abundance fitness of -0.529 ± 0.08.
For “NEDD4-like E3 ubiquitin-protein ligase WWP2 R468S, O00308”, the abundance fitness was -0.212 ± 0.053.
Work on “NEDD4-like E3 ubiquitin-protein ligase WWP2 Y491V, O00308” yielded an abundance fitness of 0 ± 0.038.
Substance “NEDD4-like E3 ubiquitin-protein ligase WWP2 K484T, O00308” has an abundance fitness of -0.025 ± 0.039.
“NEDD4-like E3 ubiquitin-protein ligase WWP2 S456N, O00308” gave an abundance fitness of 0.04 ± 0.074.
“NEDD4-like E3 ubiquitin-protein ligase WWP2 K453F, O00308” gave an abundance fitness of -0.006 ± 0.075.
In the case of “NEDD4-like E3 ubiquitin-protein ligase WWP2 K484L, O00308”, the abundance fitness is reported as -0.064 ± 0.03.
With “NEDD4-like E3 ubiquitin-protein ligase WWP2 F479C, O00308” the abundance fitness was -0.054 ± 0.046.
With “NEDD4-like E3 ubiquitin-protein ligase WWP2 P477L, O00308” the abundance fitness was -0.038 ± 0.034.
For “NEDD4-like E3 ubiquitin-protein ligase WWP2 T483G, O00308”, the abundance fitness was -0.01 ± 0.032.
Work on “NEDD4-like E3 ubiquitin-protein ligase WWP2 E451G, O00308” yielded an abundance fitness of -0.287 ± 0.037.
“Transcription factor SOX-11 K85S, P35716” showed an abundance fitness of 0.026 ± 0.05.
For “NEDD4-like E3 ubiquitin-protein ligase WWP2 T467S, O00308”, the abundance fitness was -0.136 ± 0.056.
“NEDD4-like E3 ubiquitin-protein ligase WWP2 M452I, O00308” gave an abundance fitness of -0.001 ± 0.053.
“NEDD4-like E3 ubiquitin-protein ligase WWP2 P444F, O00308” gave an abundance fitness of 0.098 ± 0.067.
